Measured values: patent publication US11981740B2, “BAFF-R antibodies and uses thereof” (CITY OF HOPE, priority 2016, dated 2024)

Tests used:
[1] = test system: JeKo-1-CD20-KO tumor cells; experiment: In vivo JeKo-1-CD20-KO xenograft; design: species or system NSG mice
Excerpt: (§1) FIGS. 6A and 6B are images and FIG. 6C are graphs showing chimeric antibodies targeting human BAFF-R elicited in vivo therapeutic effects against drug resistant B-cell tumors. Bioluminescence images of mice challenged with luciferase-expressing tumors JeKo-1-CD20-KO cells (FIG. 6A) or ibrutinib-resistant Z-138 cells (FIG. 6B) followed by antibody treatments as in FIG. 4. Control group mice received PBS, NK cells alone, or rituximab on the same schedule. […] Tumor free rate and survival differences between experimental and all control groups were analyzed by log-rank test (**P<0.001). Data are representative of three independent experiments.
(§2) In vivo studies. For tumor models, stable, luciferase-expressing tumors lines were established for bioluminescent imaging in mouse models. Briefly, a luciferase gene was introduced into tumor lines by a lentivirus gene delivery system (pLenti7.3/V5-DEST Gateway Vector Kit, Life Technologies, Carlsbad, CA). The minimum lethal dose per mouse was determined for each tumor cell line by dose titration. Tumor cells were injected intravenously (IV) and mice were monitored by in vivo bioluminescence imaging for minimum tumor dose to ensure engraftment. Minimum lethal tumor doses were: 1×10^6 JeKo-1, 5×10^5 RS4; 11, 5×10^5 JeKo-1-CD20-KO, or 2.5×10^4 Z-138 cells. […]

[2] = test system: JeKo-1 (MCL), SU-DHL-6 (DLBCL), Raji (Burkitt lymphoma), and RL (FL); experiment: Flow cytometry binding to NHL cell lines; design: species or system human; settings: chimeric antibodies conjugated to Alexa Fluor 488
Excerpt: FIGS. 1A, 1B, 1C, 1D and 1E are FACS images showing generation and specificity of novel monoclonal antibodies against human BAFF-R. FIG. 1A is a FACS analysis of cell surface expression of hBAFF-R-GFP fusion protein in mouse fibroblast L cells. Gated on GFP-positive cells, engineered L cell clone (right plot) is compared to parental L cells (left plot). Clone D2C was selected for further studies. FIGS. 1B, 1C, 1D and 1E are FACS traces of fluorescent counts of anti-BAFF-R antibodies binding cell lines and patient samples. […] BAFF-R-negative 293T embryonic kidney cell line was used as a control. […] Parental L cells and secondary anti-hIgG-APC antibodies only were used as controls. […] The data are representative of three independent experiments. For all of FIGS. 1B-1E, the traces from top to bottom as shown in the figures correlate with the variables (e.g., antibody type or cell type) used from top to bottom shown below or next to the figures.
FIG. 10 are results of FACS analyses showing hBAFF-R mAbs recognized non-Hodgkin lymphoma cell lines in vitro. […] The traces from top to bottom as shown in the figures correlate with the variables (e.g., antibody type or cell type) used from top to bottom shown next to the figures.

[3] = test system: primary CLL (n=3) and MCL (n=2) samples; experiment: ADCC on primary samples from rituximab-treated patients; type: cell-based, human; settings: patients previously treated with rituximab; E:T=20:1
Method: FIGS. 3A and 3B are graphs showing BAFF-R monoclonal antibodies induce in vitro Antibody Dependent Cell-Mediated Cytotoxicity (ADCC) against primary B-cell tumors. Antibody-dependent cell-mediated cytotoxicity (ADCC) effects were measured by chromium-51 release after incubation with C55, C90, or rituximab and effectors (NK cells). […] Data are shown as the mean±s.d. of triplicate samples. *P<0.05 compared with NK cells by two-tailed Student's t-test.
(§3) Cytotoxicity assays. Target cells (L cells, human tumor lines, primary patient samples) were labeled with chromium-51 (51Cr, Perkin Elmer, Waltham, MA) for a 51Cr release assay. Briefly, antibodies and effectors (NK cells or complement serum standard [Sigma Aldrich, St. Louis, MO]), were added to labeled target cells and incubated up to 18 hours. NK cells were enriched from PBMC (NK cell enrichment kit, Stemcell Technologies, Vancouver, Canada). 51Cr released into supernatant was detected with a Wizard Automatic Gamma Counter (Perkin Elmer).

Mino cells = experiment: Antibody internalization by flow cytometry; type: cell-based; settings: 37° C. for 1 hour
Method: Mino cells were incubated with mAb C90 (0.05 μg/10^6 cells) at 4° C. for 20 minutes followed by incubation at 37° C. for 1 hour. Flow cytometry analysis was performed with anti-mouse IgG-APC. Cells were gated for surface localized antibodies (OUT) and loss of cell surface staining (IN).

[4] = test system: BAFF-R-expressing L cells and JeKo-1; experiment: ADCC chromium-51 release assay, L cells, JeKo-1, U266; type: cell-based; settings: NK cells E:T 20:1; BAFF-R positive vs negative targets
Method: Antibody-induced cytotoxicities measured by chromium-51 release after incubation with C55, C90, or rituximab and effectors (NK cells or complement containing serum). NK effector cell to target ratio (E:T) of 20:1. […] Data are shown as the mean±s.d. of triplicate samples. *P<0.05 compared with NK cells by two-tailed Student's t-test.
FIG. 12 is a graph showing chimeric antibodies induced ADCC against BAFF-R expressing L cells. BAFF-R-expressing D2C L cells (targets) were labeled with chromium-51 followed by incubation overnight with chimeric mAb+NK cells (effector to target ratio, 20:1). Culture supernatant was analyzed for released chromium.
as §3

JeKo-1 MCL cell line = experiment: In vivo JeKo-1 MCL xenograft, bioluminescence imaging; design: species or system NSG mice; settings: compared with PBS or NK cells alone
Excerpt: (§4) FIG. 4A is a schematic showing treatment schedule following Day 0 tumor challenge with minimum lethal dose of tumors. Treatments were given by IV tail vein injections. FIGS. 4B and 4C are images showing chimeric antibodies targeting human BAFF-R elicited in vivo therapeutic effects against B-cell tumors. Bioluminescence images of mice challenged with luciferase-expressing tumors: JeKo-1 (MCL) (FIG. 4B) or RS4; 11 (ALL) (FIG. 4C). Experimental groups received treatment of chimeric BAFF-R mAbs (C55 or C90, as indicated). Control group mice received PBS, NK cells alone, or rituximab on the same schedule. Data are representative of three independent experiments.
as §2

[5] = test system: ibrutinib-resistant Z-138; experiment: In vivo ibrutinib-resistant Z-138 xenograft; design: species or system NSG mice; settings: Z-138 tumor-bearing mice; compared with PBS or NK only
Excerpt: as §1, §2

[6] = test system: RS4; 11 (acute lymphoblastic leukemia, ALL); experiment: In vivo RS4;11 ALL xenograft, bioluminescence imaging; settings: RS4;11 challenged NSG mice
Excerpt: as §4, §2

JeKo-1-CD20-KO clone 25 = experiment: ADCC on rituximab-resistant JeKo-1-CD20-KO; type: cell-based; settings: E:T=20:1
Method: FIGS. 5A, 5B and 5C are images or graphs showing chimeric BAFF-R antibodies induce ADCC on drug resistant lymphoma models in vitro. FIG. 5A is a scatterplot of FACS analysis showing CD20 binding on JeKo-1 cells following CRISPR/HDR knock-out of CD20 gene. CD20 expression on selected CD20−/−clone #25 compared to WT JeKo-1. ADCC effects measured by chromium-51 release after incubation with C55, C90, or rituximab and effectors NK cells (E:T=20:1). Percentage of cell specific lysis of target cells: rituximab-resistant JeKo-1-CD20-KO (FIG. 5B) and ibrutinib-resistant Z-138 and SP49-IR (FIG. 5C). All data are representative of two or more identical experiments. Data are shown as the mean±s.d. of triplicate samples. *P<0.05 compared with NK cells by two-tailed Student's t-test.
as §3
Generation of JeKo-1-CD20-KO. […]

B1: C55: chimeric anti-BAFF-R mAb from clone 55 containing human IgG1 constant regions (antibody, V domains shown)
VH: QVTLKESGPGILKPSQTLSLTCSFSGFSLSTSGMGVGWIRQPSGKGLEWLAHIWWDDDKYYNSSLKSHLTISKDTSRNQVFLKITSVDTADTATYYCARSFGYGLDYWGQGTTLTVSSAS
VL: DIQMTQTTSSLSASLGDRVTISCSASQDISNYLNWYQQKPDGTVKLLIYYTSSLHSGVPSRFSGSGSGTDYSLTISSLEPEDIATYYCHQFSELPWTFGGGTKLEIKRT
- tumor free and long-term overall survival ([1]; 80-day curves): significant antitumor effects
- tumor burden by bioluminescent imaging ([1]; Day 20): no visible tumors
- direct binding to NHL lines [2]: exhibited direct binding
- ADCC killing of primary samples [3]: sensitive to killing by ADCC
- internalization upon binding BAFF-R (Mino cells): limited internalization
- antibody-dependent cell-mediated cytotoxicity (ADCC) [4]: specifically against BAFF-R-expressing L cells and JeKo-1, but not BAFF-R negative L cells nor the BAFF-R negative human multiple myeloma line, U266
- tumor growth (JeKo-1 MCL cell line): significant retardation of tumor growth
- antitumor effects [5]: significant effects were observed
- tumor growth [6]: markedly retarded tumor growth
- sensitivity to antibody-mediated cytotoxicity (JeKo-1-CD20-KO clone 25): retained sensitivity
